Measured values reported in publication doi:10.1101/2025.08.21.671500.

T1: FOXA2 forkhead domain (UniProt Q9Y261 159-252)
T1 sequence: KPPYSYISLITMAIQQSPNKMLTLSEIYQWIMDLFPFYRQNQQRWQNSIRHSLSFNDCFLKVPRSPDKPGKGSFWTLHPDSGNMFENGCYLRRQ

T2: FOXA1 forkhead domain;FOXA2 forkhead domain, Twin-Strep-tagged (human?;human?, UniProt P55317;Q9Y261 169-260;159-252, |)
T2 sequence 1: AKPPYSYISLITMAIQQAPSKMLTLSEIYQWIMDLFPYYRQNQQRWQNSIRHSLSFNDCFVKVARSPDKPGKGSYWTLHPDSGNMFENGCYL
T2 sequence 2: T1 sequence

T3: FOXA1 forkhead domain (UniProt P55317 169-260)
T3 sequence: T2 sequence 1

B1: PAL (extended palindromic motif) (dsDNA)
DNA 1: CCGCCGTAAGTAAATATTTACTTAGCCGCC
DNA 2: GGCGGCTAAGTAAATATTTACTTACGGCGG
B2: C (canonical FOXA motif) (dsDNA)
DNA 1: CCGCCGCCGTGTTTACTTTGCCGCCGCC
DNA 2: GGCGGCGGCAAAGTAAACACGGCGGCGG
B3: 2C (two canonical motifs separated by 3 nt) (dsDNA)
DNA 1: CCGCCGTATTTACTGAGTAAATAGCCGCC
DNA 2: GGCGGCTATTTACTCAGTAAATACGGCGG
B4: BLI 40-mer (dsDNA)
DNA 1: GTGTCTCCTGCTCTGTCAGCAGGGCACTGTACTTGCTGAT
DNA 2: ATCAGCAAGTACAGTGCCCTGCTGACAGAGCAGGAGACAC

Experiments:
FOXA2 forkhead domain [1] = molecular target: T1, FOXA2 forkhead domain; assay: EMSA
[2] = molecular target: T2, FOXA1 forkhead domain;FOXA2 forkhead …; assay: EMSA
FOXA1 forkhead domain [3] = molecular target: T3, FOXA1 forkhead domain; assay: EMSA
FOXA1 forkhead domain [4] = molecular target: T3, FOXA1 forkhead domain; assay: BLI
FOXA2 forkhead domain [5] = molecular target: T1, FOXA2 forkhead domain; assay: BLI

Row | Binder | binding result (FOXA2 forkhead domain [1]) | binding result [2] | binding result (FOXA1 forkhead domain [3]) | binding result (FOXA1 forkhead domain [4]) | binding result (FOXA2 forkhead domain [5])
1 | B1 | binds | binds | binds | – | –
2 | B2 | binds | – | – | – | –
3 | B3 | binds | binds | binds | – | –
4 | B4 | – | – | – | binds | binds
